Here are results for 3 molecules from paper doi:10.1101/2020.05.08.084889 (bioRxiv, 2020).

The labels stand for the following.
B2: Recombinant rat EfnB1-FC (Fc fusion)
chain: ATPLAKNLEPVSWSSLNPKFLSGKGLVIYPKIGDKLDIICPRAEAGRPYEYYKLYLVRPEQAAACSTVLDPNVLVTCNKPQQEIRFTIKFQEFSPNYMGLEFKKYHDYYITSTSNGSLEGLENREGGVCRTRTMKIVMKVGQDPNAVTPEQLTTSRPSKESDNTVKTATQAPGRGSQGDSDGKHETVNQQEKSGPGAGGSGSGDTDSFFNSK

Data set [1] deals with the molecule itself. Put plainly: single molecule AFM force measurement.
The data set “Recombinant rat EfnB1-FC” deals with B2. Put plainly: single molecule AFM force measurement.

B1: Desmocollin-3 complete extracellular region, biotinylated (Dsc3-ATH) (domain or fragment)
chain: RWAPIPCSMQENSLGPFPLFLQQVESDAAQNYTVFYSISGRGVDKEPLNLFYIERDTGNLFCTRPVDREEYDVFDLIAYASTADGYSADLPLPLPIRVEDENDNHPVFTEAIYNFEVLESSRPGTTVGVVCATDRDEPDTMHTRLKYSILQQTPRSPGLFSVHPSTGVITTVSHYLDREVVDKYSLIMKVQDMDGQFFGLIGTSTCIITVTDSNDNAPTFRQNAYEAFVEENAFNVEILRIPIEDKDLINTANWRVNFTILKGNENGHFKISTDKETNEGVLSVVKPLNYEENRQVNLEIGVNNEAPFARDIPRVTALNRALVTVHVRDLDEGPECTPAAQYVRIKENLAVGSKINGYKAYDPENRNGNGLRYKKLHDPKGWITIDEISGSIITSKILDREVETPKNELYNITVLAIDKDDRSCTGTLAVNIEDVNDNPPEILQEYVVICKPKMGYTDILAVDPDEPVHGAPFYFSLPNTSPEISRLWSLTKVNDTAARLSYQKNAGFQEYTIPITVKDRAGQAATKLLRVNLCECTHPTQCRATSRSTGVILGK
modifications: biotin on the Avi-tag (BirA enzyme)
Turning to B1, in data set [1], the binding result is recorded as “binds”. Still for that read-out and setting: then B2, with “binds”.

B3: E-cadherin complete extracellular region, biotinylated (Ecad-ATH) (domain or fragment)
chain: DWVIPPISCPENEKGPFPKNLVQIKSNRDKEIKVFYSITGQGADAPPVGVFIIERETGWLKVTEPLDREQIAKYILYSHAVSSNGNAVEDPMEIVITVTDQNDNKPEFTQAVFQGSVTEGALPGTSVMQVTATDADDDVNTYNAAIAYSILTQDPLLPSSMMFTINKDTGVISVLTTGLDREGVPMYTLVVQAADLQGEGLTTTATAVITVTDINDNPPIFNPTTYQGRVPENKANVEIAVLKVTDADVPDTPAWRAVYTILNNNNDQFVVTTDPVTNDGILKTTKGLDFEDKQQYVLYVTVVNVTPFEVILSTSTATVTVDVEDVNEAPIFIPCPKVVSIPEDFGVGQEITSYTAEDPDTYMEQRITYRIWRDAAGWLEVNPESGAIFTRAELDREDFEHVKNSTYEALIIAIDNGSPVATGTGTLLLVLSDVNDNGPIPEPRNMDFCQKNPQPHVINIIDPDLPPNTSPFTAELTHGASVNWTIEYNDPARESLILKPKKTLELGDYKINLKLTDNQNKDQVTTLDVFVCDCEGVVNSCKRTAPYAEAGLQVPA
modifications: biotin on the Avi-tag (BirA enzyme)
In the case of B3, the “fold of heterophilic binding over EfnB1 homophilic binding” value in the data set with Recombinant rat EfnB1-FC is roughly 3 fold.
